Changes are numbered by the printed parent chain. “Also recorded” adds a separate entry of the source.
Tests used:
csgD mRNA [1] = test: Native gel retardation assays; assay type: binding, Escherichia coli
Source text: To generate the various csgD mRNA fragments as well as the sRNA's RydC, DNA templates containing a T7 promoter sequence were generated by PCR using the appropriate primers (Table S2) followed by in vitro transcription using a MEGAscript kit (Ambion) per the manufacturer's protocol. Transcription products were then electrophoresed onto a 6% PAGE containing 8M urea, excised from the gel, then […]. When necessary, purified RNA was dephosphorylated using CIP (New England Biolabs), 5′end-labelled with ATP γ-^32P (PerkinElmer) and T4 polynucleotide kinase (NE Biolabs), then treated with gel purification, passive elution, and ethanol precipitation.
(§1) After denaturation followed by renaturation at room temperature, annealing mixes containing 0.2 pmol csgD mRNA and 1 pmol of labelled primer were incubated for 15 min with or without various concentrations of RydC or Hfq. fMet-tRNA^fMet was then added for 5 min. Reverse transcription was started by adding 2 μL of AMV RT (NE Biolabs) and dNTPs for 15 min, then stopped by adding 10 μL of Buffer II (Ambion). The cDNAs and sequencing reactions were run on polyacrylamide gels, and signals detected using a PhosphorImager. Gel retardation assays are performed as previously described (4). 0.5 pmol of labelled RydC were incubated for 10 min at 37° C. with various concentrations (0-500 pmols) of unlabelled csgD mRNA215, csgD mRNAΔ5′UTR, or csgD mRNA100 in 1×TMN buffer (20 mM Tris-acetate pH 7.6, 100 mM sodium acetate, and 5 mM magnesium acetate). Samples were loaded onto a native 5% acrylamide gel and separated with 0.5×TBE at 4° C. Gels are dried and visualized (PhosphorImager).

csgD mRNA215 = test: Ribosome toeprint assays; assay type: biochemical, Escherichia coli; settings: RydC without Hfq (elevated amounts); Hfq without RydC (low amounts)
Experimental: as §1

csgD mRNA [2] = test: In vitro translation assays (PURESYSTEM); assay type: biochemical, Escherichia coli; settings: csgD mRNA503; for effect of adding Hfq on the translation regulation by the RydC mutant: 2-fold molar excess of Hfq
Experimental: In vitro translation of CsgD mRNA503 (2.5 pmols) using [^35S]-methionine was carried out with a PURESYSTEM (Cosmo Bio) following the manufacturer's instructions and as described previously (13). After RNA denaturation for 2 min at 85° C., chilling 2 min on ice, then renaturation for 5 min at 37° C. in TMN 1× buffer, a pre-complex between RydC and 10 pmol of Hfq was performed during 10 minutes at 37° C. To form the complex with the csgD mRNA, we again incubated for 10 min at 37° C. then translation assays were initiated by adding [^35S]-methionine and the PURESYSTEM classic II. Each reaction was denatured in a 1× Laemmli buffer at 95° C. for 5 min, loaded onto a 16% Tris-glycine gel, and visualized on a PhosphorImager.

E. coli [3] = test: E. coli biofilm formation in the presence of PNAs; assay type: cell-based; settings: 20 μM of PNAs
Experimental: The inventors used peptide nucleic acids (PNAs) that hybridize to the CsgD mRNA sequence ranging from nucleic acid at position 128 to nucleic acid at position 151 in SEQ ID NO: 9. In the presence of 20 μM of PNAs corresponding to RydC 1-2tot sequence (SEQ ID NO: 10), E. coli biofilm formation was reduced about 50%.

E. coli [4] = test: E. coli growth in the presence of PNAs; assay type: cell-based
Hfq = Hfq (Escherichia coli, UniProt P0A6X3 P0A6X3:2-102); test: EMSA; Hfq binds csgD mRNA215 in absence of RydC; no Kd given; settings: tags: His tag implied by Ni2+ column purification, expressed from pTE607 in BL21(DE3); chain copies: 6; nine helices H1-H9
Hfq, sequence (P0A6X3 2-102, one chain of several): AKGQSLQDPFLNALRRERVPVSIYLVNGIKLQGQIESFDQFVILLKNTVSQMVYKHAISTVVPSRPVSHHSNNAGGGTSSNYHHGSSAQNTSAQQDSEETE

Escherichia coli [5] = test: Microtiter dish biofilm assay (crystal violet), RydC expression from pUC18-rydC; assay type: cell-based; settings: increased RydC expression (pUC18-rydC) vs isogenic strain; 48 hours incubation at 28° C.
[6] = tested on: Salmonella enterica (bongori); test: as above; assay type: cell-based; settings: increased RydC expression (pUC18-rydC) vs isogenic strain; 48 hours incubation at 28° C.
Escherichia coli [7] = test: Curli formation on Congo red plates; assay type: cell-based; settings: stimulated RydC expression, 48 hours at 28° C.
[8] = tested on: Salmonella enterica (bongori); test: Curli formation on Congo red plates; assay type: cell-based; settings: stimulated RydC expression, 48 hours at 28° C.
CsgA protein = settings: stimulated RydC expression; YESCA plates, 0-48 hours
Experimental: E. coli K-12 MG1655Z1, S. sonnei and S. enterica strains and their derivatives were used (Table S1). RydC gene disruption and overexpression in E. coli cells were done as previously described (4). The biofilm assays were performed in 96-well polystyrene plates, as previously described (18). E. coli, S. enterica, and S. sonnei cells were grown aerobically under static conditions at 28° C. in half-diluted M9 media supplemented with a 0.4% glucose carbon source. After 48 h growth, planktonic cells were discarded and kept for growth evaluation at OD600 nm. Each well was washed twice with PBS and put into a ‘swimming pool’, pooled with the initial supernatant. Biofilm was developed in plates then dyed with crystal violet for 15 min at room temperature. The biofilm was recovered through application of an 80% absolute ethanol and 20% acetone solution and by pipetting up and down. After 2 further washes in ‘ethanol/acetone’, the number of surface-attached bacteria was estimated from the optical density at 590 nm and divided by the evaluation of growth at 600 nm. Curli expression was monitored for 48 h at 28° C. on Congo red plates (1% Casamino acids, 0.1% yeast extract, 20 μg ml^−1 Congo red and 10 μg ml^−1 Coomassie Brilliant Blue G). […]

CsgB protein = test: Western blot with anti-CsgB antibodies during curli formation; assay type: cell-based, Escherichia coli; settings: promoted RydC expression; after 48 h
Source text: (§2) Membranes were blocked in TBS containing 5% milk.

CsgD protein = test: Western blot with anti-CsgD antibodies during curli formation; assay type: cell-based, Escherichia coli; settings: induction of RydC expression; all times during curli synthesis
Source text: as §2

csgBA and csgA mRNA = test: Northern blot of csgA and csgBA mRNAs during curli formation; assay type: cell-based, Escherichia coli; settings: high levels of RydC; after 10 h incubation
csgD mRNA [9] = test: Northern blot of csgD mRNA during curli formation; assay type: cell-based, Escherichia coli; settings: induced RydC expression; throughout curli synthesis

In the case of “Hfq: purified E. coli Hfq RNA-binding protein (RNA chaperone)”, the “interaction of Hfq with csgD mRNA215” value (csgD mRNA [1]; absence of RydC) is reported as “interacts”, the “ribosome loading / translation initiation on csgD mRNA215 (toeprint)” value (csgD mRNA215) is reported as “prevent csgD mRNA translation initiation” and the “CsgD translation remaining (down to)” value (csgD mRNA [2]; relative to translation without RydC and Hfq) is reported as 40%.

In the case of “AACATGATGAAACCCCGC (all peptide nucleic acid (PNA)) [RydC 1-2tot]”, the “reduction of E. coli biofilm formation” value (E. coli [3]) is reported as “about 50%” and the “effect on bacterial growth” value (E. coli [4]) is reported as “reducing E. coli growth”.

B1: csgD mRNA215 (ssRNA)
RNA: GAUGUAAUCCAUUAGUUUUAUAUUUUACCCAUUUAGGGCUGAUUUAUUACUACACACAGCAGUGCAACAUCUGUCAGUACUUCUGGUGCUUCUAUUUUAGAGGCAGCUGUCAGGUGUGCGAUCAAUAAAAAAAGCGGGGUUUCAUCAUGUUUAAUGAAGUCCAUAGUAUUCAUGGUCAUACAUUAUUGUUGAUCACUAAAUCUUCUUUGCAGGCG
B1: binds (Hfq).

B2: Escherichia coli RydC small RNA (nucleic acid, listed as Escherichia coli)
chain: CUUCCGAUGUAGACCCGUAUUCUUCGCCUGUACCACGGGUCGGUUUUAGUACAGGCGUUUUCU
modifications: expressed or natural sequence
notes: trans-encoded 64 nt sRNA of enteric bacteria folding as a pseudoknot; expressed from pUC18-rydC or transcribed in vitro
With B2 the “reduction of biofilm formation” value (Escherichia coli [5]) was “about one-third”, the “reduction of biofilm formation” value [6] was “one-half” and the curli formation (Escherichia coli [7]) was “lowered curli formation”. For the same molecule, the curli formation [8] was “lowered curli formation”, the “reduction of the quantity of CsgA structural protein compared to wt” value (CsgA protein) was “up to 2.5 times” and the “reduction of CsgB nucleator protein compared to isogenic strain” value (CsgB protein) was “about two-fold”. The “reduction of CsgD protein compared to isogenic strain” value (CsgD protein) was “up to five-fold”, the “decrease of steady state levels of csgBA and csgA mRNA transcripts” value (csgBA and csgA mRNA) was “half” and the “csgD mRNA steady state levels compared to isogenic strain” value (csgD mRNA [9]) was “half”. The “complex formation with csgD mRNA100” value (csgD mRNA [1]; 31 nts of 5′UTR including TIS plus 69 nts coding sequence) was “duplex was detected; also recorded: lower than that with mRNA215”, the “ternary complex formation RydC-Hfq-csgD mRNA215” value (csgD mRNA [1]; Hfq 1:1 molar ratio to RydC, one-to-one molar ratio with csgD mRNA215) was “nearly all of the RydC is in the complex” and the “molar excess of csgD mRNA215 versus RydC needed for about half of RydC in complex” value (csgD mRNA [1]; absence of Hfq) was 1000 -fold molar excess. The “complex formation with csgD mRNA115” value (csgD mRNA [1]; first 115 nts of the csgD mRNA 5′-end, up to 250-fold excess) was “unable to interact; also recorded: did not interact”, the “complex formation with csgD mRNAΔ5′UTR” value (csgD mRNA [1]; mRNA lacking the 5′-UTR, starting at G+3) was “does not interact” and the “complex formation with csgD mRNA215” value (csgD mRNA [1]; no Hfq) was “duplex was detected”. The “ribosome loading / translation initiation on csgD mRNA215 (toeprint)” value (csgD mRNA215) was “reduced ribosome loading onto the csgD mRNA in a concentration-dependent manner” and the “reduction of CsgD translation” value (csgD mRNA [2]; without Hfq) was 20%.

B3: Escherichia coli RydC H2 (nucleic acid)
chain: CUUCCGAUGUACUGGGCAAUUCUUCGCCUGUACCACGGGUCGGUUUUAGUACAGGCGUUUUCUU
modifications: chemistry not given here
With B3 the “effect of adding Hfq on the translation regulation by the RydC mutant” value (csgD mRNA [2]) was “not beneficial”.

B4: Escherichia coli RydC H1 (nucleic acid)
chain: CUUCCGAUGUAGACCCGUAUUCUUCGCCUGUACCUGCCCAGGGUUUUAGUACAGGCGUUUUCUU
modifications: chemistry not given here
In the case of B4, the “effect on CsgD translation” value (csgD mRNA [2]; absence of Hfq) is reported as “increased efficacy and translation blockage”.

B5: Escherichia coli RydC H3 (nucleic acid)
chain: B3 chain with A35U, C36G, G37C, G38C, G39C, U40A, C41G
modifications: chemistry not given here
With B5 the “activity for reducing CsgD translation relative to RydCH1” value (csgD mRNA [2]) was “ten-fold”, the “activity in reducing csgD mRNA translation relative to RydC” value (csgD mRNA [2]) was “only half as active as RydC” and the “effect of adding Hfq on the translation regulation by the RydC mutant” value (csgD mRNA [2]) was “no effect”.

— US9765332B2, “Oligonucleotides and methods for inhibiting or reducing bacterial biofilms” (INSERM (INSTITUT NATIONAL DE LA SANTE ET DE LA RECHERCHE …)
